Results published in article PMC8621148, “Determination of the Protein-Protein Interactions within Acyl Carrier Protein (MmcB)-Dependent Modifications in the Biosynthesis of Mitomycin” (Molecules, 2021).

Key:
MitF, reductase = molecular target: T1, MitF, reductase (Streptomyces lavendulae NRRL 2564, UniProt Q9X5R6 1-257); test: SPR; Biacore 8K, 25 °C; MitB (5000 RU) or MitF (3000 RU) coupled to a CM5 chip in 10 mM NaAc pH 4.0; holo-MmcB flowed over (2.7-43.2 µM on MitB, 0.7-21.6 µM on MitF); conditions: both partners purified
T1 construct: MitF, reductase of the mitomycin C biosynthetic gene cluster, Streptomyces lavendulae NRRL 2564; source: E. coli BL21(DE3), pET30a (pJQK414), purified (Ni-NTA, FPLC); not shown: His6, N-terminal, kept
T1 sequence (looked up): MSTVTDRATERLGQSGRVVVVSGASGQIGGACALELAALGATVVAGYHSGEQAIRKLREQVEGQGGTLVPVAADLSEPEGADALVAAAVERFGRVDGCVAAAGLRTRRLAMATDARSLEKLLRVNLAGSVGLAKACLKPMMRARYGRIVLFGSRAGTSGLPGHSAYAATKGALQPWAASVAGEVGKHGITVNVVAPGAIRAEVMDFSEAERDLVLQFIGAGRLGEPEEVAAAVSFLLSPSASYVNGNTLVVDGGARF

[1] = molecular target: MitB (intact, updated open reading frame), glycosyltransferase (Streptomyces lavendulae NRRL 2564) (UniProt Q9WW09); test: as above

- stoichiometry N (MitF, reductase): 1
- Kd [1]: 578 nM
- koff [1]: 0.113 s⁻¹
- kon [1]: 195000 M⁻¹ s⁻¹
- stoichiometry N [1]: 1
B1: holo-MmcB (acyl carrier protein MmcB, tag-free) (natural protein, Streptomyces lavendulae NRRL 2564, UniProt Q9X5S0 1-93, looked up)
chain: METLTTDKIKDRLRKVLVDSLELSLDPSAVPDEGLVEKLGLDSINTIEFLIWVESEFGIEIADEDLSIKLIDSLDLLAGYVSERVNGVTAPAE
modifications: 4'-phosphopantetheine at Ser43 (holo-form)
notes: MmcB, acyl carrier protein of the mitomycin C biosynthetic gene cluster, Streptomyces lavendulae NRRL 2564; 93 amino acid residues; gene synthesised with codons optimised for E. coli; The methods name the holo form for both the pull-down and SPR; also called ACP; tag-free MmcB; not shown: His6, C-terminal, cleaved
